Positions count from the first letter of the chain named.
Tests used:
Assay in all cases: EMSA
Settings in all cases: 50 mM Tris-HCl pH 8.0, 100 mM NaCl, 40% glycerol, 5 mM DTT, 2 mM EDTA, 4 °C 1 h; 10% native PAGE in 0.5x TBE at 4 °C
[1] = molecular target: T1, CutR Q5A Q5A (Mycobacterium sp. strain JC1) (UniProt D5G1X9)
T1 sequence: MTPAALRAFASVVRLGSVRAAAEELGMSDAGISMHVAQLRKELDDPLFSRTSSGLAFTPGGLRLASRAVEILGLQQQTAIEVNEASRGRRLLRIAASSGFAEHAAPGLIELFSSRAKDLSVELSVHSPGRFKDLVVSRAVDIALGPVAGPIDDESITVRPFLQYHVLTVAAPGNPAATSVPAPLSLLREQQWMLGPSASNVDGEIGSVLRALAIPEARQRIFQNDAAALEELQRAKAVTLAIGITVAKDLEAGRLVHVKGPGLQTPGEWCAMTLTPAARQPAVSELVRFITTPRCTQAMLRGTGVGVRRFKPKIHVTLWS

[2] = molecular target: T2, CutR R19A R19A (Mycobacterium sp. strain JC1) (UniProt D5G1X9)
T2 sequence: T1 sequence with A5Q, R19A

[3] = molecular target: T3, CutR R40A R40A (Mycobacterium sp. strain JC1) (UniProt D5G1X9)
T3 sequence: T1 sequence with A5Q, R40A

[4] = molecular target: T4, CutR R7A R7A (Mycobacterium sp. strain JC1) (UniProt D5G1X9)
T4 sequence: T1 sequence with A5Q, R7A

[5] = molecular target: T5, CutR Q38A Q38A (Mycobacterium sp. strain JC1) (UniProt D5G1X9)
T5 sequence: T1 sequence with A5Q, Q38A

ACCCCGAGTTAAGTGATTCCTTAACTCGCTATTGACGCCATCGCGGCGGCAACGGAAACTAGCCACTTCAGCCACGACGTTGTGAGGATGATCACATGCAA (double strand) [IR1 to CRP motif fragment (101 bp)]
binding [1]: binds | binding [2]: binds | binding [3]: no binding | binding [4]: binds | binding [5]: binds
